One test deals with T1, human DLL3 (human, UniProt Q9NYJ7 27-492, limits assumed).
T1 construct: also called hDLL3; Delta-like protein 3
T1 sequence (looked up): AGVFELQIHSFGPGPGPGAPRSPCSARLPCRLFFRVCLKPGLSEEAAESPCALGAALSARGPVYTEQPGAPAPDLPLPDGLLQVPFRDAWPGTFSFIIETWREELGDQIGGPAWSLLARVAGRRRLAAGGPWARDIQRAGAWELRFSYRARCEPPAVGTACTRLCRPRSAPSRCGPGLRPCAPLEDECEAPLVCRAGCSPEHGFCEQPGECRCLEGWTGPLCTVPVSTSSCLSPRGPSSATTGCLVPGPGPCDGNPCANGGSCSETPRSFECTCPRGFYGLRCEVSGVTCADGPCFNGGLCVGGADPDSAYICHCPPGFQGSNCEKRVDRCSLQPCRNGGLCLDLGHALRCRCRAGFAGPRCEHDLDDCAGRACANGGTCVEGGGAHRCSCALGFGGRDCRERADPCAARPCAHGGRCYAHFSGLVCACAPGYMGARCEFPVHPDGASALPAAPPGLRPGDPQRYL
The test is described as follows: ELISA. (In an ELISA, binding on a coated surface is turned into a signal by an enzyme label.)

The next test has as its target T2, mouse DLL3 (mouse, UniProt O88516 25-477, limits assumed).
T2 construct: also called mDLL3; murine DLL3
T2 sequence (looked up): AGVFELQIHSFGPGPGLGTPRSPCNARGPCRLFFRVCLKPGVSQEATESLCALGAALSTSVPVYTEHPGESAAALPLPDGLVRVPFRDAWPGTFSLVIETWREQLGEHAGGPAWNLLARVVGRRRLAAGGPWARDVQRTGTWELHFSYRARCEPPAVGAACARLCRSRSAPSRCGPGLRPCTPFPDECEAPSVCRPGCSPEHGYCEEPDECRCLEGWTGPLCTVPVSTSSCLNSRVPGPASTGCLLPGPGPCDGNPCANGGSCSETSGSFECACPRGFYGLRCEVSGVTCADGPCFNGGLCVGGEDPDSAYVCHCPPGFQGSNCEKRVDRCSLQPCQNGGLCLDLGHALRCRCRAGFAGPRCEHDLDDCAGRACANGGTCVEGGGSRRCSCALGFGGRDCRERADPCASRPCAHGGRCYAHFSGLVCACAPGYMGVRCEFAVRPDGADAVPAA
The test can be described thus: ELISA.

Test [1] concerns the target T3, DLL3 on cells (SHP-77, NCI-H82, HEK-DLL3, membrane proteome array cells) (human, UniProt Q9NYJ7 27-618).
T3 construct: whole, on cells; also called hDLL3
T3 sequence (looked up): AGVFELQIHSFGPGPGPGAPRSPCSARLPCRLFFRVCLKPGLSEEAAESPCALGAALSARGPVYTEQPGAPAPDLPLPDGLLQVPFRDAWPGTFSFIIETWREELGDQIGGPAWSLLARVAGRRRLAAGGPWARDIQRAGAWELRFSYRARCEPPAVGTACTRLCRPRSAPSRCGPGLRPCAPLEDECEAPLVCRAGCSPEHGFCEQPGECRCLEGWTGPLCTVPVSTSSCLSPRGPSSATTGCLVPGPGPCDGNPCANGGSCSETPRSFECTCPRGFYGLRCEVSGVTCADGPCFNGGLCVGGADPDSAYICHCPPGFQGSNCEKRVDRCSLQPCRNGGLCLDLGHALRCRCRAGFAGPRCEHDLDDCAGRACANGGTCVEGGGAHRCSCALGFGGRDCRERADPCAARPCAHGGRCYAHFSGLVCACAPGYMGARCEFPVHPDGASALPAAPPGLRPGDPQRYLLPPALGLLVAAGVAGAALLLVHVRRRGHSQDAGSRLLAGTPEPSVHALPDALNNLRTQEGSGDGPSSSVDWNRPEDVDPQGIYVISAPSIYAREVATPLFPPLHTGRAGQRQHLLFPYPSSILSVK
The test can be described thus: flow cytometry on SHP-77 cells, Geomeans RL1-H.

Test [2] addresses T3, DLL3 on cells (SHP-77, NCI-H82, …). The test can be described thus: flow cytometry on SHP-77 cells, Geomeans RL1-H. The source holds these as a separate data set. (In general: Flow cytometry measures light scatter and fluorescence of single cells or particles in a stream.)

Like-named read-outs stand apart in the source and are kept apart here.

For orientation: EC50 (read off the curve) means the concentration needed to bring the measured effect to its halfway point.

B1: 100_zu5 (Fc fusion)
chain: QVQLVESGGGLVQPGGSLRLSCAASGIVFNSDVMGWYRQVPGKPRELVATITGGGSTNYATSVKGRFTISRDNSKNTLYLQMNSLRAEDTAVYYCAARRGDSMLAFWGQGTLVTVSSEPKSSDKTHTCPPCPAPEAEGAPSVFLFPPKPKDTLMISRTPEVTCVVVDVSHEDPEVKFNWYVDGVEVHNAKTKPREEQYNSTYRVVSVLTVLHQDWLNGKEYKCKVSNKALPSSIEKTISKAKGQPREPQVYTLPPSREEMTKNQVSLTCLVKGFYPSDIAVEWESNGQPENNYKTTPPVLDSDGSFFLYSKLTVDKSRWQQGNVFSCSVMHEALHNQYTQKSLSLSPG
notes: Humanized VHH-Fc
Regarding B1, the binding result in the test with human DLL3 and with mouse DLL3 was “no binding” throughout.

B2: 186_zu1 (Fc fusion)
chain: QVQLVESGGGLVQPGGSLRLSCAASGFDFSTYTVNWFRQAPGQGLEAVARISSTGTTTNYANSAKGRFTISRDNSKNTLYLQMNSLRAEDTAVYYCAAERFDSNYWGQGTLVTVSSEPKSSDKTHTCPPCPAPEAEGAPSVFLFPPKPKDTLMISRTPEVTCVVVDVSHEDPEVKFNWYVDGVEVHNAKTKPREEQYNSTYRVVSVLTVLHQDWLNGKEYKCKVSNKALPSSIEKTISKAKGQPREPQVYTLPPSREEMTKNQVSLTCLVKGFYPSDIAVEWESNGQPENNYKTTPPVLDSDGSFFLYSKLTVDKSRWQQGNVFSCSVMHEALHNQYTQKSLSLSPG
notes: Humanized VHH-Fc
In the case of B2, the binding result in the test with mouse DLL3 is “no binding”. Also, the “EC50 (read off the curve)” value in test [1] is around 0.3 nM.

B3: 107_zu4 (Fc fusion)
chain: QVQLVESGGGLVQPGGSLRLSCAASDRTFSSYAVGWFRQAPGQEREFVAAISWNGGRTLYTDSVTGRFTISRDNSKNTLYLQMNSLRAEDTAVYYCAARPAAPTRRLEYDYWGQGTLVTVSSEPKSSDKTHTCPPCPAPEAEGAPSVFLFPPKPKDTLMISRTPEVTCVVVDVSHEDPEVKFNWYVDGVEVHNAKTKPREEQYNSTYRVVSVLTVLHQDWLNGKEYKCKVSNKALPSSIEKTISKAKGQPREPQVYTLPPSREEMTKNQVSLTCLVKGFYPSDIAVEWESNGQPENNYKTTPPVLDSDGSFFLYSKLTVDKSRWQQGNVFSCSVMHEALHNQYTQKSLSLSPG
notes: Humanized VHH-Fc
Consider B3, for which the binding result (with human DLL3; in test [2]) was “binds” in each case.

B4: 107_zu3 (Fc fusion)
chain: QVQLVESGGGLVQPGGSLRLSCAASDRTFSSYAVGWFRQAPGQGREFVAAISWNGGRTLYTDSVTGRFTISRDNSKNTLYLQMNSLRAEDTAVYYCAARPAAPTRRLEYDYWGQGTLVTVSSEPKSSDKTHTCPPCPAPEAEGAPSVFLFPPKPKDTLMISRTPEVTCVVVDVSHEDPEVKFNWYVDGVEVHNAKTKPREEQYNSTYRVVSVLTVLHQDWLNGKEYKCKVSNKALPSSIEKTISKAKGQPREPQVYTLPPSREEMTKNQVSLTCLVKGFYPSDIAVEWESNGQPENNYKTTPPVLDSDGSFFLYSKLTVDKSRWQQGNVFSCSVMHEALHNQYTQKSLSLSPG
notes: Humanized VHH-Fc
B4: the binding result (with human DLL3; in test [2]) was “binds” throughout.

B5: 107_zu5 (Fc fusion)
chain: QVQLVESGGGLVQPGGSLRLSCAASDRTFSSYAVGWFRQAPGKEREFVAAISWNGGRTLYTDSVTGRFTISRDNSKNTLYLQMNSLRAEDTAVYYCAARPAAPTRRLEYDYWGQGTLVTVSSEPKSSDKTHTCPPCPAPEAEGAPSVFLFPPKPKDTLMISRTPEVTCVVVDVSHEDPEVKFNWYVDGVEVHNAKTKPREEQYNSTYRVVSVLTVLHQDWLNGKEYKCKVSNKALPSSIEKTISKAKGQPREPQVYTLPPSREEMTKNQVSLTCLVKGFYPSDIAVEWESNGQPENNYKTTPPVLDSDGSFFLYSKLTVDKSRWQQGNVFSCSVMHEALHNQYTQKSLSLSPG
notes: Humanized VHH-Fc
In the case of B5, the binding result (with human DLL3; in test [2]) was “binds” each time.

B6: 126_zu4 (Fc fusion)
chain: QVQLVESGGGLVQPGGSLRLSCAASGITFSMYSMSWYRQAPGQQRELVAATTTFGSTNYADSVKGRFTISRDNSKNTLYLQMNSLRAEDTAVYYCAARFTSEEYWGQGTLVTVSSEPKSSDKTHTCPPCPAPEAEGAPSVFLFPPKPKDTLMISRTPEVTCVVVDVSHEDPEVKFNWYVDGVEVHNAKTKPREEQYNSTYRVVSVLTVLHQDWLNGKEYKCKVSNKALPSSIEKTISKAKGQPREPQVYTLPPSREEMTKNQVSLTCLVKGFYPSDIAVEWESNGQPENNYKTTPPVLDSDGSFFLYSKLTVDKSRWQQGNVFSCSVMHEALHNQYTQKSLSLSPG
notes: Humanized VHH-Fc
On to B6, for which the binding result with mouse DLL3 was “no binding”. The concentration giving a half-maximal response (EC50 (read off the curve)) in test [2] is around 0.1 nM.

B7: 126_zu5 (Fc fusion)
chain: QVQLVESGGGLVQPGGSLRLSCAASGITFSMYSMSWYRQPPGKQRELVAATTTFGSTNYADSVKGRFTISRDNSKNTLYLQMNSLRAEDTAVYYCAARFTSEEYWGQGTLVTVSSEPKSSDKTHTCPPCPAPEAEGAPSVFLFPPKPKDTLMISRTPEVTCVVVDVSHEDPEVKFNWYVDGVEVHNAKTKPREEQYNSTYRVVSVLTVLHQDWLNGKEYKCKVSNKALPSSIEKTISKAKGQPREPQVYTLPPSREEMTKNQVSLTCLVKGFYPSDIAVEWESNGQPENNYKTTPPVLDSDGSFFLYSKLTVDKSRWQQGNVFSCSVMHEALHNQYTQKSLSLSPG
notes: Humanized VHH-Fc
As to B7, the binding result with mouse DLL3 is given as “no binding”. In test [2], the “EC50 (read off the curve)” value is around 0.1 nM.

B8: 126_zu1 (Fc fusion)
chain: QVQLVESGGGLVQPGGSLRLSCAASGITFSMYSMSWFRQAPGQGLEAVAATTTFGSTNYADSVKGRFTISRDNSKNTLYLQMNSLRAEDTAVYYCAARFTSEEYWGQGTLVTVSSEPKSSDKTHTCPPCPAPEAEGAPSVFLFPPKPKDTLMISRTPEVTCVVVDVSHEDPEVKFNWYVDGVEVHNAKTKPREEQYNSTYRVVSVLTVLHQDWLNGKEYKCKVSNKALPSSIEKTISKAKGQPREPQVYTLPPSREEMTKNQVSLTCLVKGFYPSDIAVEWESNGQPENNYKTTPPVLDSDGSFFLYSKLTVDKSRWQQGNVFSCSVMHEALHNQYTQKSLSLSPG
notes: Humanized VHH-Fc
As to B8, the binding result was “binds” with human DLL3, “no binding” in the test with mouse DLL3 and “binds” in test [2].

B9: 126_zu3 (Fc fusion)
chain: QVQLVESGGGLVQPGGSLRLSCAASGITFSMYSMSWYRQAPGQGLELVAATTTFGSTNYADSVKGRFTISRDNSKNTLYLQMNSLRAEDTAVYYCAARFTSEEYWGQGTLVTVSSEPKSSDKTHTCPPCPAPEAEGAPSVFLFPPKPKDTLMISRTPEVTCVVVDVSHEDPEVKFNWYVDGVEVHNAKTKPREEQYNSTYRVVSVLTVLHQDWLNGKEYKCKVSNKALPSSIEKTISKAKGQPREPQVYTLPPSREEMTKNQVSLTCLVKGFYPSDIAVEWESNGQPENNYKTTPPVLDSDGSFFLYSKLTVDKSRWQQGNVFSCSVMHEALHNQYTQKSLSLSPG
notes: Humanized VHH-Fc
In the case of B9, the binding result with mouse DLL3 is “no binding”. Also, the “EC50 (read off the curve)” value in test [2] is around 0.1 nM.

B10: 186 (Fc fusion)
chain: QVQVVESGGGLVQPGGSLTLSCAASGFDFSTYTVNWYRQAPGKEREKVARISSTGTTTNYANSAKGRFTLSRDNAKNRVYLQMNNLKPEDTAVYFCNFERFDSNYWGQGTQVTVSSEPKSSDKTHTCPPCPAPEAEGAPSVFLFPPKPKDTLMISRTPEVTCVVVDVSHEDPEVKFNWYVDGVEVHNAKTKPREEQYNSTYRVVSVLTVLHQDWLNGKEYKCKVSNKALPSSIEKTISKAKGQPREPQVYTLPPSREEMTKNQVSLTCLVKGFYPSDIAVEWESNGQPENNYKTTPPVLDSDGSFFLYSKLTVDKSRWQQGNVFSCSVMHEALHNQYTQKSLSLSPG
notes: Parental camelid VHH-Fc
As to B10, the “EC50 (read off the curve)” value in test [1] is around 0.1 nM.

The values above are taken from US20250051476A1 (ABDERA THERAPEUTICS, published 2025).
